Laboratory results reported in patent publication US11155596B2, “Polypeptide” (AFFIBODY AB, priority 2016, dated 2021).

Assays:
[1] = system: MDA-MB-231 cells co-cultivated with PBMC; experiment: Co-culture of MDA-MB-231 and PBMC (mixed lymphocyte assay); assay type: cell-based; conditions: six days co-culture with PBMC; 200-0.064 nM
Procedure: Co-culture of MDA-MB-231 and PBMC: A mixed lymphocyte assay was used to analyze if the Ipi-based complexes could affect proliferation or the cytotoxic effect of T-cells and thereby increase the elimination of cancer cells. Herein, peripheral blood mononuclear cells (PBMC) and MDA-MB-231 cells were co-cultivated for six days and the number of T-cells and cancer cells were assessed. 20000 MDA-MB-231 cells, cultivated in DMEM containing 10% FBS, were pipetted per well of a flat-bottomed 96-well plate and were left to adhere to the bottom of the well by incubation at 37° C. in a humidified 5% CO2 atmosphere. Day 2 of the experiment, serial dilutions (200-0.064 nM) of the Ipi-based complexes were prepared in a separate plate using RPM11640 with L-glut (Lonza) supplemented with 10% FCS, and 1% Pen-Strep (Lonza, cat. no. DE17-603E). The DMEM medium was discarded from the MDA-MB-231 cells and 100 μl of the diluted complexes were added. PBMC were prepared form a buffy coat using Ficoll Paque PLUS (GE Healthcare, cat no. 17-1440-02). In brief, the buffy coat was diluted 2× in PBS. […] The cells were counted and adjusted to 1 million cells per ml in supplemented RPMI medium. […] At day 7 of the experiment, the number of MDA-MD-231 cells and CD3+ T-cells were counted by FACS. […]

[2] = Circular dichroism (CD) spectroscopy, variable temperature measurement; assay type: physicochemical; conditions: 1 mM EDTA, pH 7.2; for Tm (° C.): 0.5 mg/ml in 20 mM HEPES, VTM 20 to 90° C. at 221 nm; for refolding, CD spectra before and after heating to 90° C.: 20 mM HEPES
Procedure: Circular dichroism (CD) spectroscopy analysis: Two purified Z variants with a C-terminal cysteine, Z15168-Cys (SEQ ID NO:809) and Z15169-Cys (SEQ ID NO:810), were diluted to 0.5 mg/ml in 20 mM HEPES, 1 mM EDTA, pH 7.2. For each diluted Z variant, a CD spectrum at 250-195 nm was obtained at 20° C. In addition, a variable temperature measurement (VTM) was performed to determine the melting temperature (Tm). In the VTM, the absorbance was measured at 221 nm while the temperature was raised from 20 to 90° C., with a temperature slope of 5° C./min. A new CD spectrum was obtained at 20° C. after the heating procedure in order to study the refolding ability of the Z variants. The CD measurements were performed on a Jasco J-810 spectropolarimeter (Jasco Scandinavia AB) using a cell with an optical path length of 1 mm.
Circular dichroism (CD) spectroscopy analysis: A subset of the purified Hiss-tagged Z variants were analyzed by CD spectroscopy as described in Example 3, but with the exceptions that the analysis buffer was PBS and that the temperature was raised to 80° C. in the VTM.

[3] = system: PD-L1 expressing MDA-MB-231 cells; experiment: Cell binding analysis by FACS, MDA-MB-231 cells; assay type: cell-based; conditions: 0.625 μg/ml complex or antibody (anti-PD-L1 antibody 1 μg/ml), negative control 69
Procedure: Cells incubated with buffer alone were used as negative controls. The cells were incubated for 1 h at 8° C. in the dark, washed twice with 100 μl staining buffer, and resuspended in 100 μl of staining buffer containing 2.5 μg/ml of a goat-anti-human IgG-Alexa488 (Molecular Probes, cat. no. A11013) or, for cells stained with the positive control antibody, goat anti-mouse IgG-Alexa647 antibody (Life Technologies, cat. No. A21236). The cells were incubated for 1 h at 8° C. in the dark, washed twice with 100 μl staining buffer and resuspended in 300 μl of staining buffer. Data from 10,000 cells were obtained using a FACS Calibur ([…]) and the data was analyzed using Flowing software 2.5.0 (Turku University). Mean fluorescence intensity (MFI) was used as a read out of binding capacity.

| Substance | number of MDA-MB231 cells [1] | Tm (° C.) [2] [°C] | refolding, CD spectra before and after heating to 90° C. [2] | MFI [3] |
| --- | --- | --- | --- | --- |
| ipilimumab [reference compound] | did not induce a concentration dependent decrease of the cancer cells | – | – | – |
| Z15168-Cys: Z13091 mutated to start with AE instead of VD, with C-terminal addition of VDC | – | 50 | Reversible folding | – |
| Lam: control antibody having the same CDR sequences and specificity as PD-1 targeting pembrolizumab; SEQ ID NO:815 and 816 | – | – | – | 62 |
| Z15169-Cys: Z13156 mutated to start with AE instead of VD, with C-terminal addition of VDC | – | 58 | Reversible folding | – |
